Legend:
human IL-11 (human) [1] = biological target: human IL-11 (human) (UniProt P20809); assay: cell-based or functional assay
murine IL-11 (mouse) [2] = biological target: murine IL-11 (mouse) (UniProt P47873); assay: cell-based or functional assay
human IL-11 (human) [3] = biological target: human IL-11 (human) (UniProt P20809); assay: SPR (Biacore), antibody captured, IL-11 at single concentration 200 nM
murine IL-11 (mouse) [4] = biological target: murine IL-11 (mouse) (UniProt P47873); assay: as above
human IL-11 (human) [5] = biological target: human IL-11 (human) (UniProt P20809); assay: Di-complex ELISA, canine IL11RA-hFc binding to immobilized hIL-11, competition
murine IL-11 (mouse) [6] = biological target: murine IL-11 (mouse) (UniProt P47873); assay: Di-complex ELISA, canine IL11RA-hFc binding to immobilized mIL-11, competition
human IL-11 (human) [7] = biological target: human IL-11 (human) (UniProt P20809); assay: Tri-complex ELISA, hIL-11 + mIL-11Ra-Fc + hgp130-Fc, inhibition of complex formation
murine IL-11 (mouse) [8] = biological target: murine IL-11 (mouse) (UniProt P47873); assay: Tri-complex ELISA, mIL-11 + mIL-11Ra-Fc + mgp130-Fc, inhibition of complex formation
[9] = biological target: IL-11 [218-IL from R&D Systems, Inc.] (human) (UniProt P20809); assay: cell-based or functional assay
IL-11 [218-IL from R&D Systems, Inc.] (human), sequence (P20809 22-199 limits assumed): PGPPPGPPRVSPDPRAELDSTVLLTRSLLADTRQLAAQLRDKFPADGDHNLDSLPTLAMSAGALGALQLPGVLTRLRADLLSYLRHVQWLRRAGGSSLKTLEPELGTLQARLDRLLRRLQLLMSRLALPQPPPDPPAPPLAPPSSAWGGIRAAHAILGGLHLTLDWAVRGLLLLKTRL

[10] = biological target: human IL-11 (Invigate, e.g., lot #C121021-19) (human) (UniProt P20809); assay: cell-based or functional assay
human IL-11 (Invigate, e.g., lot #C121021-19) (human), sequence (P20809 22-199): as the sequence (P20809 22-199 limits assumed) above

[11] = biological target: murine IL-11 (Invigate, e.g., lot #C210819-09) (mouse) (UniProt P47873); assay: cell-based or functional assay
murine IL-11 (Invigate, e.g., lot #C210819-09) (mouse), sequence (P47873 22-199): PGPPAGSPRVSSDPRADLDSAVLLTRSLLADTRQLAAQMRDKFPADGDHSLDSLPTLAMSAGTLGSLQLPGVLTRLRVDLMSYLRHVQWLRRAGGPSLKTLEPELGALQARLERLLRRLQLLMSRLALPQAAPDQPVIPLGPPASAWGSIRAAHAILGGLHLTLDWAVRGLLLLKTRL

[12] = biological target: human IL-11 (Invigate, e.g., lot #C121021-19) (human) (UniProt P20809); assay: SPR, Biacore T200, 25 C; antibody captured via anti-mouse Fc, IL-11 as analyte, 1:1 Langmuir fit
[13] = biological target: murine IL-11 (Invigate, e.g., lot #C210819-09) (mouse) (UniProt P47873); assay: as above
[14] = biological target: human IL-11 (Invigate, e.g., lot #C121021-19) (human) (UniProt P20809); assay: Tri-complex ELISA: antibody titrated against 8 nM human IL-11, 2 nM human gp130-human-Fc and 2 nM murine IL11RA-murine-Fc
[15] = biological target: murine IL-11 (Invigate, e.g., lot #C210819-09) (mouse) (UniProt P47873); assay: Tri-complex ELISA: antibody titrated against 8 nM murine IL-11, 2 nM murine gp130-human-Fc and 2 nM murine IL11RA-murine-Fc
[16] = biological target: human IL-11 (Invigate, e.g., lot #C121021-19) (human) (UniProt P20809); assay: Di-complex ELISA: biotinylated human IL-11 on streptavidin plate, antibody titrated against 2 nM canine IL11RA-human-Fc (competitor)
[17] = biological target: murine IL-11 (Invigate, e.g., lot #C210819-09) (mouse) (UniProt P47873); assay: Di-complex ELISA: biotinylated murine IL-11 on streptavidin plate, antibody titrated against 2 nM canine IL11RA-human-Fc (competitor)

murine IL-11 (mouse), sequence (P47873 22-199): as above
human IL-11 (human), sequence (P20809 22-199): as the sequence (P20809 22-199 limits assumed) above

Row | Efficacy (%), Stat3 reporter gene assay (human IL-11 (human) [1]) [%] | Efficacy (%), Stat3 reporter gene assay (murine IL-11 (mouse) [2]) [%] | IC50, Stat3 reporter gene assay (murine IL-11 (mouse) [2]) [nM] | Kd (human IL-11 (human) [3]) [nM] | Kd (murine IL-11 (mouse) [4]) [nM] | Efficacy (%) (human IL-11 (human) [5]) | IC50 (human IL-11 (human) [5]) [nM] | Efficacy (%) (murine IL-11 (mouse) [6]) | IC50 (murine IL-11 (mouse) [6]) [nM] | Efficacy (%) (human IL-11 (human) [7]) | IC50 (human IL-11 (human) [7]) [nM] | Efficacy (%) (murine IL-11 (mouse) [8]) | IC50 (murine IL-11 (mouse) [8]) [nM] | Substance | further results
1 | 52.7 | 88.3 | 5.6 | 6.3 | 6.2 | 90.1 | 10 | 96.2 | 6.5 | 78.5 | 10 | 90.3 | 6.6 | LS-C193526 (antibody) | IC50, Stat3 reporter gene assay (human IL-11 (human) [1]): 50 nM
2 |  |  |  |  |  |  |  |  |  |  |  |  |  | IL-11 function blocking polyclonal antibody AF-418-NA (R&D Systems, Inc.) | secretion of VEGF-A, primary human fibroid slice assay (ng/mg protein) [9]: 17.3
3 |  |  |  |  |  |  |  |  |  |  |  |  |  | TPP-14250 (R&D Systems, #MAB218) (antibody) | Efficacy (%), Stat3 reporter gene assay, human IL11RA, 0.78 nM hIL-11 [10]: 27.1%; IC50 [M], Stat3 reporter gene assay, HEK 293F transfected with human IL11RA, 0.78 nM hIL-11 [10]: 2.41e-10 M; Efficacy (%), Stat3 reporter gene assay, mouse Il11ra, 3.13 nM mIL-11 [11]: 69.1%; IC50 [M], Stat3 reporter gene assay, HEK 293F transfected with mouse Il11ra, 3.13 nM mIL-11 [11]: 1.42e-07 M; Kd [12]: 19 nM; Kd [13]: 3.8 nM; Efficacy (%) [14]: 67.2%; IC50 [14]: 38 nM; Efficacy (%) [15]: 60.9%; IC50 [15]: 17 nM; Efficacy (%) [16]: 67.2%; IC50 [16]: 7.4 nM; Efficacy (%) [17]: 92.3%; IC50 [17]: 1.3 nM
4 | 19.9 | 47.6 |  | 3.6 | 2 | 51.1 | 60 | 70.5 | 29 | 34.1 | 19 | 62.3 |  | MA5-23711 (antibody) | 
5 | 5.1 | 75.5 |  | 3.3 | 2 | 74.9 | 1.9 | 89.9 | 4.7 | 36.9 | 14 | 106 | 17 | GTX52814 (antibody) | 
6 | 42.6 | 88 | 3.9 | 3.9 | 2.2 | 71.5 | 5.3 | 91.2 | 3.5 | 65.6 | 20 | 98.4 | 3.8 | LS-C104441 (antibody) | 
